Test results from publication PMC5440694 (Nature Communications, 2017).

Key:
[1] = biological target: biotinylated HA0 ectodomain of A/Panama/2007/1999 (H3N2) (Influenza A virus A/Panama/2007/1999 …, UniProt Q1K9M3, strain, biotin on the BirA biotinylation site); assay: BLI; conditions: both partners purified
[2] = biological target: T1, biotinylated HA0 ectodomain of A/Perth/16/2009 (H3N2) (Influenza A virus A/Perth/16/2009 (H3N2), UniProt C6KNH7, strain, biotin on the BirA biotinylation site); assay: BLI; conditions: both partners purified
[3] = biological target: T2, biotinylated HA0 ectodomain of A/Solomon Islands/3/2006 (H1N1) (Influenza A virus A/Solomon …, UniProt A7Y8I1, strain, biotin on the BirA biotinylation site); assay: BLI; conditions: both partners purified
[4] = biological target: biotinylated HA0 ectodomain of A/New Caledonia/20/1999 (H1N1) (Influenza A virus A/New …, UniProt Q6WG00, strain, biotin on the BirA biotinylation site); assay: BLI; conditions: both partners purified
[5] = biological target: biotinylated HA0 ectodomain of A/Beijing/262/1995 (H1N1) (Influenza A virus A/Beijing/262/1995 …, UniProt Q6WG01, strain, biotin on the BirA biotinylation site); assay: BLI; conditions: both partners purified
[6] = biological target: T1, biotinylated HA0 ectodomain of …; assay: yeast display selection (FACS) with next-generation sequencing; conditions: one partner purified
[7] = biological target: T1, biotinylated HA0 ectodomain of …; assay: BLI; conditions: one partner purified
[8] = biological target: T2, biotinylated HA0 ectodomain of …; assay: yeast display selection (FACS) with next-generation sequencing; conditions: one partner purified

Binder | binding result [6] | binding result [8] | also measured
wild-type C05 Fab (VVSAGW), expressed in insect cells (Fab, V domains shown) VH: QVQLQESGGGLVQPGESLRLSCVGSGSSFGESTLSYYAVSWVRQAPGKGLEWLSIINAGGGDIDYADSVEGRFTISRDNSKETLYLQMTNLRVEDTGVYYCAKHMSMQQVVSAGWERADLVGDAFDVWGQGTMVTVSS VL: DIQLTQSPSSLSASVGDRVTLTCQASQDIRKFLNWYQQKPGKGPKLLIYDASNLQRGVPSRFSGGGSGTDFTLIISSLQPEDVGTYYCQQYDGLPFTFGGGTKVVIK |  |  | Kd [1]: 926 ± 12.1 nM; Kd [2]: 23.4 ± 0.1 nM; Kd [3]: 91.4 ± 0.9 nM; Kd [4]: 6.3 ± 0.1 nM; Kd [5]: 23.1 ± 0.6 nM
C05 Fab variant YDPGGW displayed on yeast (Fab, V domains shown) VH: QVQLQESGGGLVQPGESLRLSCVGSGSSFGESTLSYYAVSWVRQAPGKGLEWLSIINAGGGDIDYADSVEGRFTISRDNSKETLYLQMTNLRVEDTGVYYCAKHMSMQQYDPGGWERADLVGDAFDVWGQGTMVTVSS VL: DIQLTQSPSSLSASVGDRVTLTCQASQDIRKFLNWYQQKPGKGPKLLIYDASNLQRGVPSRFSGGGSGTDFTLIISSLQPEDVGTYYCQQYDGLPFTFGGGTKVVIK | binds |  | 
C05 Fab variant VVDAGW, in supernatant of transfected 293T cells (Fab, V domains shown) VH: QVQLQESGGGLVQPGESLRLSCVGSGSSFGESTLSYYAVSWVRQAPGKGLEWLSIINAGGGDIDYADSVEGRFTISRDNSKETLYLQMTNLRVEDTGVYYCAKHMSMQQVVDAGWERADLVGDAFDVWGQGTMVTVSS VL: DIQLTQSPSSLSASVGDRVTLTCQASQDIRKFLNWYQQKPGKGPKLLIYDASNLQRGVPSRFSGGGSGTDFTLIISSLQPEDVGTYYCQQYDGLPFTFGGGTKVVIK |  |  | binding result [7]: binds
C05 Fab variant LPGGGW displayed on yeast (Fab, V domains shown) VH: QVQLQESGGGLVQPGESLRLSCVGSGSSFGESTLSYYAVSWVRQAPGKGLEWLSIINAGGGDIDYADSVEGRFTISRDNSKETLYLQMTNLRVEDTGVYYCAKHMSMQQLPGGGWERADLVGDAFDVWGQGTMVTVSS VL: DIQLTQSPSSLSASVGDRVTLTCQASQDIRKFLNWYQQKPGKGPKLLIYDASNLQRGVPSRFSGGGSGTDFTLIISSLQPEDVGTYYCQQYDGLPFTFGGGTKVVIK | binds |  | 
C05 Fab variant VVDSGW displayed on yeast (Fab, V domains shown) VH: QVQLQESGGGLVQPGESLRLSCVGSGSSFGESTLSYYAVSWVRQAPGKGLEWLSIINAGGGDIDYADSVEGRFTISRDNSKETLYLQMTNLRVEDTGVYYCAKHMSMQQVVDSGWERADLVGDAFDVWGQGTMVTVSS VL: DIQLTQSPSSLSASVGDRVTLTCQASQDIRKFLNWYQQKPGKGPKLLIYDASNLQRGVPSRFSGGGSGTDFTLIISSLQPEDVGTYYCQQYDGLPFTFGGGTKVVIK | binds |  | 
C05 Fab variant WYVHLW displayed on yeast (Fab, V domains shown) VH: QVQLQESGGGLVQPGESLRLSCVGSGSSFGESTLSYYAVSWVRQAPGKGLEWLSIINAGGGDIDYADSVEGRFTISRDNSKETLYLQMTNLRVEDTGVYYCAKHMSMQQWYVHLWERADLVGDAFDVWGQGTMVTVSS VL: DIQLTQSPSSLSASVGDRVTLTCQASQDIRKFLNWYQQKPGKGPKLLIYDASNLQRGVPSRFSGGGSGTDFTLIISSLQPEDVGTYYCQQYDGLPFTFGGGTKVVIK | binds |  | 
C05 Fab variant VVEAGW, in supernatant of transfected 293T cells (Fab, V domains shown) VH: QVQLQESGGGLVQPGESLRLSCVGSGSSFGESTLSYYAVSWVRQAPGKGLEWLSIINAGGGDIDYADSVEGRFTISRDNSKETLYLQMTNLRVEDTGVYYCAKHMSMQQVVEAGWERADLVGDAFDVWGQGTMVTVSS VL: DIQLTQSPSSLSASVGDRVTLTCQASQDIRKFLNWYQQKPGKGPKLLIYDASNLQRGVPSRFSGGGSGTDFTLIISSLQPEDVGTYYCQQYDGLPFTFGGGTKVVIK |  |  | binding result [7]: binds
C05 Fab variant LPSSGW displayed on yeast (Fab, V domains shown) VH: QVQLQESGGGLVQPGESLRLSCVGSGSSFGESTLSYYAVSWVRQAPGKGLEWLSIINAGGGDIDYADSVEGRFTISRDNSKETLYLQMTNLRVEDTGVYYCAKHMSMQQLPSSGWERADLVGDAFDVWGQGTMVTVSS VL: DIQLTQSPSSLSASVGDRVTLTCQASQDIRKFLNWYQQKPGKGPKLLIYDASNLQRGVPSRFSGGGSGTDFTLIISSLQPEDVGTYYCQQYDGLPFTFGGGTKVVIK |  | binds | 
C05 Fab variant VASSGW displayed on yeast (Fab, V domains shown) VH: QVQLQESGGGLVQPGESLRLSCVGSGSSFGESTLSYYAVSWVRQAPGKGLEWLSIINAGGGDIDYADSVEGRFTISRDNSKETLYLQMTNLRVEDTGVYYCAKHMSMQQVASSGWERADLVGDAFDVWGQGTMVTVSS VL: DIQLTQSPSSLSASVGDRVTLTCQASQDIRKFLNWYQQKPGKGPKLLIYDASNLQRGVPSRFSGGGSGTDFTLIISSLQPEDVGTYYCQQYDGLPFTFGGGTKVVIK |  | binds | 
C05 Fab variant WPEIGF displayed on yeast (Fab, V domains shown) VH: QVQLQESGGGLVQPGESLRLSCVGSGSSFGESTLSYYAVSWVRQAPGKGLEWLSIINAGGGDIDYADSVEGRFTISRDNSKETLYLQMTNLRVEDTGVYYCAKHMSMQQWPEIGFERADLVGDAFDVWGQGTMVTVSS VL: DIQLTQSPSSLSASVGDRVTLTCQASQDIRKFLNWYQQKPGKGPKLLIYDASNLQRGVPSRFSGGGSGTDFTLIISSLQPEDVGTYYCQQYDGLPFTFGGGTKVVIK |  | binds | 
C05 Fab variant VPGAGW displayed on yeast (Fab, V domains shown) VH: QVQLQESGGGLVQPGESLRLSCVGSGSSFGESTLSYYAVSWVRQAPGKGLEWLSIINAGGGDIDYADSVEGRFTISRDNSKETLYLQMTNLRVEDTGVYYCAKHMSMQQVPGAGWERADLVGDAFDVWGQGTMVTVSS VL: DIQLTQSPSSLSASVGDRVTLTCQASQDIRKFLNWYQQKPGKGPKLLIYDASNLQRGVPSRFSGGGSGTDFTLIISSLQPEDVGTYYCQQYDGLPFTFGGGTKVVIK | binds | binds | 
C05 Fab variant VEEAGW, in supernatant of transfected 293T cells (Fab, V domains shown, not shown: His6, C-terminal, kept) VH: QVQLQESGGGLVQPGESLRLSCVGSGSSFGESTLSYYAVSWVRQAPGKGLEWLSIINAGGGDIDYADSVEGRFTISRDNSKETLYLQMTNLRVEDTGVYYCAKHMSMQQVEEAGWERADLVGDAFDVWGQGTMVTVSS VL: DIQLTQSPSSLSASVGDRVTLTCQASQDIRKFLNWYQQKPGKGPKLLIYDASNLQRGVPSRFSGGGSGTDFTLIISSLQPEDVGTYYCQQYDGLPFTFGGGTKVVIK |  |  | binding result [7]: binds
C05 Fab variant VVDSGW, in supernatant of transfected 293T cells (Fab, V domains shown, not shown: His6, C-terminal, kept) VH: QVQLQESGGGLVQPGESLRLSCVGSGSSFGESTLSYYAVSWVRQAPGKGLEWLSIINAGGGDIDYADSVEGRFTISRDNSKETLYLQMTNLRVEDTGVYYCAKHMSMQQVVDSGWERADLVGDAFDVWGQGTMVTVSS VL: DIQLTQSPSSLSASVGDRVTLTCQASQDIRKFLNWYQQKPGKGPKLLIYDASNLQRGVPSRFSGGGSGTDFTLIISSLQPEDVGTYYCQQYDGLPFTFGGGTKVVIK |  |  | binding result [7]: binds
C05 Fab variant VVGSGW displayed on yeast (Fab, V domains shown) VH: QVQLQESGGGLVQPGESLRLSCVGSGSSFGESTLSYYAVSWVRQAPGKGLEWLSIINAGGGDIDYADSVEGRFTISRDNSKETLYLQMTNLRVEDTGVYYCAKHMSMQQVVGSGWERADLVGDAFDVWGQGTMVTVSS VL: DIQLTQSPSSLSASVGDRVTLTCQASQDIRKFLNWYQQKPGKGPKLLIYDASNLQRGVPSRFSGGGSGTDFTLIISSLQPEDVGTYYCQQYDGLPFTFGGGTKVVIK | binds | binds | 
C05 Fab variant VATSGW displayed on yeast (Fab, V domains shown) VH: QVQLQESGGGLVQPGESLRLSCVGSGSSFGESTLSYYAVSWVRQAPGKGLEWLSIINAGGGDIDYADSVEGRFTISRDNSKETLYLQMTNLRVEDTGVYYCAKHMSMQQVATSGWERADLVGDAFDVWGQGTMVTVSS VL: DIQLTQSPSSLSASVGDRVTLTCQASQDIRKFLNWYQQKPGKGPKLLIYDASNLQRGVPSRFSGGGSGTDFTLIISSLQPEDVGTYYCQQYDGLPFTFGGGTKVVIK |  | binds | 
C05 Fab variant IPGSGW displayed on yeast (Fab, V domains shown) VH: QVQLQESGGGLVQPGESLRLSCVGSGSSFGESTLSYYAVSWVRQAPGKGLEWLSIINAGGGDIDYADSVEGRFTISRDNSKETLYLQMTNLRVEDTGVYYCAKHMSMQQIPGSGWERADLVGDAFDVWGQGTMVTVSS VL: DIQLTQSPSSLSASVGDRVTLTCQASQDIRKFLNWYQQKPGKGPKLLIYDASNLQRGVPSRFSGGGSGTDFTLIISSLQPEDVGTYYCQQYDGLPFTFGGGTKVVIK |  | binds | 
C05 Fab variant VASAGW displayed on yeast (Fab, V domains shown) VH: QVQLQESGGGLVQPGESLRLSCVGSGSSFGESTLSYYAVSWVRQAPGKGLEWLSIINAGGGDIDYADSVEGRFTISRDNSKETLYLQMTNLRVEDTGVYYCAKHMSMQQVASAGWERADLVGDAFDVWGQGTMVTVSS VL: DIQLTQSPSSLSASVGDRVTLTCQASQDIRKFLNWYQQKPGKGPKLLIYDASNLQRGVPSRFSGGGSGTDFTLIISSLQPEDVGTYYCQQYDGLPFTFGGGTKVVIK | binds |  | 
C05 Fab variant YEPAGW displayed on yeast (Fab, V domains shown) VH: QVQLQESGGGLVQPGESLRLSCVGSGSSFGESTLSYYAVSWVRQAPGKGLEWLSIINAGGGDIDYADSVEGRFTISRDNSKETLYLQMTNLRVEDTGVYYCAKHMSMQQYEPAGWERADLVGDAFDVWGQGTMVTVSS VL: DIQLTQSPSSLSASVGDRVTLTCQASQDIRKFLNWYQQKPGKGPKLLIYDASNLQRGVPSRFSGGGSGTDFTLIISSLQPEDVGTYYCQQYDGLPFTFGGGTKVVIK | binds |  | 
